Source: patent US20180371066A1 (C2N DIAGNOSTICS, published 2018)

Key:
[1] = biological target: T1, recombinant human Tau-412 protein (human, UniProt P10636-7 1-412); assay: SPR Biacore T200, mAb captured on Protein A, Tau-412 analyte, 1-to-1 model, chip A11/2
T1 construct: Analyte of the SPR study; also called human tau (1N4R, 412 amino acids)
Description: (§1) Kinetic data was obtained at a flow rate of 40 μL/min to minimize any potential mass transfer effects. Two repeats of the blank (no antigen) and the 2.5 nM concentration of the analyte were programmed into the kinetic run in order to check the stability of both the surface and analyte over the kinetic cycles. For the initial kinetic runs, 2-fold dilutions of Tau-412 from 40 nM to 0.156 nM were run. For kinetic analysis and on subsequent runs, an analyte range of 20 nM to 0.625 nM was selected. This range covered multiple analyte concentrations both above and below the reported KD.
(§2) The association phase was monitored for 500 seconds to allow some of the higher concentrations of analyte to reach steady state. In order to observe a sufficient signal decrease (>10%) during the dissociation phase of the kinetic cycle, dissociation was measured for 1200 seconds. As discussed in Section 5, the Fcs were allowed to stabilize for 600 seconds after each regeneration step. The signal from the reference channel Fc1 was subtracted from that of Fc2, Fc3 and Fc4.
(§3) The kinetic parameters for the interaction of Tau-412 with the 7 mAbs as measured using the Protein A capture system on the Biacore T200 are shown in Table F-2. To correct for differences in the capture level of the antibody between each binding cycle, a local Rₘₐₓ parameter was used in the 1-to-1 binding model. Kinetic analysis was performed in three independent runs using fresh preparations of Tau-412 and antibody. Run 1 and runs 2+3 used different vials of the antigen Tau-412; therefore the reported errors associated with the mean response probably represent variation in preparation of the analyte and differences in assay set-up and run. From run 1 to runs 2+3, the amount of antibody injected was adjusted to try to get closer to the target 300 RU capture levels.

[2] = biological target: T1, recombinant human Tau-412 protein; assay: SPR Biacore T200, mAb captured on Protein A, Tau-412 analyte, 1-to-1 model, chip A11/1
Description: as §1, §2, §3

human tau [3] = biological target: T2, human tau (human, UniProt P10636 2-60); assay: competition ELISA on plate-coated human tau against biotinylated HJ8.5; IC50 normalised to chimeric HJ8.5; column External
T2 construct: also called soluble human tau; human tau protein
T2 sequence (P10636 2-60 limits assumed): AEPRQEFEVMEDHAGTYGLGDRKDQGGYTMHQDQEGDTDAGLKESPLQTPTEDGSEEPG

[4] = biological target: T1, recombinant human Tau-412 protein; assay: SPR Biacore T200, Protein A capture, mean of the VH2/VK2 runs
Description: as §1, §2, §3
Target sequence in this assay (P10636 other isoform, or with tags, fused parts or gaps limits assumed): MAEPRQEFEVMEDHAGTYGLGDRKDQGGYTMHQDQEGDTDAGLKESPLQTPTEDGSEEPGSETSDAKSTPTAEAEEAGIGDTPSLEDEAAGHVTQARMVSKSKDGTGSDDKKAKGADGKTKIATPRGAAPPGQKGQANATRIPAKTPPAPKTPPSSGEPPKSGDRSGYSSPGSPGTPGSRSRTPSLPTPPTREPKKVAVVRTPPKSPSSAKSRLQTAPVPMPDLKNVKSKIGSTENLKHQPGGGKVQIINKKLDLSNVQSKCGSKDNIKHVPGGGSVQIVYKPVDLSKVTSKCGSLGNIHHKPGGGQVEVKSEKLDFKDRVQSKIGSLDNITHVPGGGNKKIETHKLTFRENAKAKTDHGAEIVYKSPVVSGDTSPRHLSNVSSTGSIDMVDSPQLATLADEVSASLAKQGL

human tau [5] = biological target: T2, human tau; assay: competition ELISA on plate-coated human tau against biotinylated HJ8.5; IC50 normalised to chimeric HJ8.5; column C2N Run 2
human tau [6] = biological target: T2, human tau; assay: competition ELISA on plate-coated human tau against biotinylated HJ8.5; IC50 normalised to chimeric HJ8.5; column C2N Run 1
[7] = biological target: T1, recombinant human Tau-412 protein; assay: SPR Biacore T200, Protein A capture, mean of the VH3/VK3 runs
Description: as §1, §2, §3

[8] = biological target: T1, recombinant human Tau-412 protein; assay: SPR Biacore T200, Protein A capture, mean of the VH2/VK3 runs
Description: as §1, §2, §3
Target sequence in this assay (P10636 other isoform, or with tags, fused parts or gaps limits assumed): as above

[9] = biological target: T1, recombinant human Tau-412 protein; assay: SPR Biacore T200, Protein A capture, mean of the VH1/VK3 runs
Description: as §1, §2, §3
Target sequence in this assay (P10636 other isoform, or with tags, fused parts or gaps limits assumed): as above

[10] = biological target: T1, recombinant human Tau-412 protein; assay: SPR Biacore T200, Protein A capture, mean of the VH3/VK2 runs
Description: as §1, §2, §3
Target sequence in this assay (P10636 other isoform, or with tags, fused parts or gaps limits assumed): as above

Kd [1] [nM] | koff [1] [s⁻¹] | kon [1] [M⁻¹ s⁻¹] | Kd [2] [nM] | koff [2] [s⁻¹] | kon [2] [M⁻¹ s⁻¹] | IC50 (Relative to Chimera) (human tau [3]) | IC50 (Relative to Chimera) (human tau [5]) | IC50 (Relative to Chimera) (human tau [6]) | Binder | also measured
 |  |  |  |  |  | 1.37 relative to Chimera | 1.03 relative to Chimera | 1.36 relative to Chimera | VH2/VK4 (antibody, human IgG4 S228P, kappa, humanized HJ8.5 variant, combination of VH2 and VK4) heavy chain: not shown light chain: DIVMTQSPDSLAVSLGERATISCRASQSVSTSRYSYIHWYQQKPGQPPKLLIKYASNLESGVPSRFSGSGSGTDFTLTISSLQPEDFATYYCHHSWEIPLTFGQGTKLEIKRTVAAPSVFIFPPSDEQLKSGTASVVCLLNNFYPREAKVQWKVDNALQSGNSQESVTEQDSKDSTYSLSSTLTLSKADYEKHKVYACEVTHQGLSSPVTKSFNRGEC | 
1.94 | 0.000572 | 295000 | 2.24 | 0.000626 | 280000 |  |  |  | VH1/VK3 humanized anti-tau antibody (antibody, human IgG4 S228P, kappa, Humanized variant of HJ8.5) heavy: not shown light: DIVLTQSPDSLAVSLGERATISCRASQSVSTSRYSYIHWYQQKPGQPPKLLIKYASNLESGVPSRFSGSGSGTDFTLTISSLQPEDFATYYCHHSWEIPLTFGQGTKLEIKRTVAAPSVFIFPPSDEQLKSGTASVVCLLNNFYPREAKVQWKVDNALQSGNSQESVTEQDSKDSTYSLSSTLTLSKADYEKHKVYACEVTHQGLSSPVTKSFNRGEC | Kd [9]: 2.09 nM; koff [9]: 0.000599 s⁻¹; kon [9]: 287000 M⁻¹ s⁻¹
 |  |  |  |  |  | 0.84 relative to Chimera | 1.11 relative to Chimera | 1.49 relative to Chimera | VH1/VK1 (antibody, human IgG4 S228P, kappa, V domains shown, humanized HJ8.5 variant, combination of VH1 and VK1) VH: EVKVVESGGGLVQPGGSMKLSCVVSGFTFSNYWVNWVRQAPGKGLEWVAQIRLKSDNYATHYEESVKGRFTISRDDSKSSVYLQMNNLRAEDSGIYYCTNWEDYWGQGTTVTVSS VL: DIVLTQSPDSLAVSLGERATISCRASQSVSTSRYSYIHWYQQKPGQPPKLLIKYASNLESGVPSRFSGSGSGTDFTLNIHPLEEEDFATYYCHHSWEIPLTFGQGTKLEIKR | 
1.67 | 0.000485 | 290000 | 2.08 | 0.000546 | 262000 | 0.94 relative to Chimera | 1.28 relative to Chimera | 0.81 relative to Chimera | VH3/VK2 humanized anti-tau antibody (antibody, human IgG4 S228P, kappa, V domains shown, Humanized variant of HJ8.5) VH: EVQVVESGGGLVQPGGSLKLSCVVSGFTFSNYWVNWVRQAPGKGLEWVAQIRLKSDNYATHYEESVKGRFTISRDDSKNSVYLQMNSLRAEDTAIYYCTNWEDYWGQGTTVTVSS VL: DIVLTQSPDSLAVSLGERATISCRASQSVSTSRYSYIHWYQQKPGQPPKLLIKYASNLESGVPSRFSGSGSGTDFTLNIHPLEPEDFATYYCHHSWEIPLTFGQGTKLEIKR | Kd [10]: 1.88 nM; koff [10]: 0.000515 s⁻¹; kon [10]: 276000 M⁻¹ s⁻¹

The next lines start with the binder.

Binder | Kd [1] [nM] | koff [1] [s⁻¹] | kon [1] [M⁻¹ s⁻¹] | Kd [2] [nM] | koff [2] [s⁻¹] | kon [2] [M⁻¹ s⁻¹] | IC50 (Relative to Chimera) (human tau [3]) | IC50 (Relative to Chimera) (human tau [5]) | IC50 (Relative to Chimera) (human tau [6]) | also measured
VH2/VK2 humanized anti-tau antibody (antibody, human IgG4 S228P, kappa, V domains shown, Humanized variant of HJ8.5) VH: EVKVVESGGGLVQPGGSLKLSCVVSGFTFSNYWVNWVRQAPGKGLEWVAQIRLKSDNYATHYEESVKGRFTISRDDSKSSVYLQMNSLRAEDTGIYYCTNWEDYWGQGTTVTVSS VL: DIVLTQSPDSLAVSLGERATISCRASQSVSTSRYSYIHWYQQKPGQPPKLLIKYASNLESGVPSRFSGSGSGTDFTLNIHPLEPEDFATYYCHHSWEIPLTFGQGTKLEIKR | 2.06 | 0.000587 | 284000 | 2.4 | 0.000628 | 262000 | 1.12 relative to Chimera | 0.85 relative to Chimera | 1.37 relative to Chimera | Kd [4]: 2.23 nM; koff [4]: 0.000608 s⁻¹; kon [4]: 273000 M⁻¹ s⁻¹
VH3/VK3 humanized anti-tau antibody (antibody, human IgG4 S228P, kappa, Humanized variant of HJ8.5) heavy: not shown light: DIVLTQSPDSLAVSLGERATISCRASQSVSTSRYSYIHWYQQKPGQPPKLLIKYASNLESGVPSRFSGSGSGTDFTLTISSLQPEDFATYYCHHSWEIPLTFGQGTKLEIKRTVAAPSVFIFPPSDEQLKSGTASVVCLLNNFYPREAKVQWKVDNALQSGNSQESVTEQDSKDSTYSLSSTLTLSKADYEKHKVYACEVTHQGLSSPVTKSFNRGEC | 1.65 | 0.000454 | 276000 | 2.2 | 0.000559 | 254000 | 0.93 relative to Chimera | 1.34 relative to Chimera | 0.84 relative to Chimera | Kd [7]: 1.92 nM; koff [7]: 0.000507 s⁻¹; kon [7]: 265000 M⁻¹ s⁻¹
VH2/VK3 humanized anti-tau antibody (antibody, human IgG4 S228P, kappa, Humanized variant of HJ8.5) heavy: not shown light: DIVLTQSPDSLAVSLGERATISCRASQSVSTSRYSYIHWYQQKPGQPPKLLIKYASNLESGVPSRFSGSGSGTDFTLTISSLQPEDFATYYCHHSWEIPLTFGQGTKLEIKRTVAAPSVFIFPPSDEQLKSGTASVVCLLNNFYPREAKVQWKVDNALQSGNSQESVTEQDSKDSTYSLSSTLTLSKADYEKHKVYACEVTHQGLSSPVTKSFNRGEC | 1.83 | 0.000533 | 292000 | 2.44 | 0.000653 | 268000 | 0.94 relative to Chimera | 0.97 relative to Chimera | 1.17 relative to Chimera | Kd [8]: 2.13 nM; koff [8]: 0.000593 s⁻¹; kon [8]: 280000 M⁻¹ s⁻¹
VH4/VK3 (antibody, human IgG4 S228P, kappa, V domains shown, humanized HJ8.5 variant, combination of VH4 and VK3) VH: EVQLVESGGGLVQPGGSLKLSCVVSGFTFSNYWVNWVRQAPGKGLEWVAQIRLKSDNYATHYEESVKGRFTISRDDSKNSLYLQMNSLRAEDTAIYYCTNWEDYWGQGTTVTVSS VL: DIVLTQSPDSLAVSLGERATISCRASQSVSTSRYSYIHWYQQKPGQPPKLLIKYASNLESGVPSRFSGSGSGTDFTLTISSLQPEDFATYYCHHSWEIPLTFGQGTKLEIKR |  |  |  |  |  |  | 1.31 relative to Chimera | 1.9 relative to Chimera | 1.79 relative to Chimera | 
VH2/VK1 (antibody, human IgG4 S228P, kappa, V domains shown, humanized HJ8.5 variant, combination of VH2 and VK1) VH: EVKVVESGGGLVQPGGSLKLSCVVSGFTFSNYWVNWVRQAPGKGLEWVAQIRLKSDNYATHYEESVKGRFTISRDDSKSSVYLQMNSLRAEDTGIYYCTNWEDYWGQGTTVTVSS VL: DIVLTQSPDSLAVSLGERATISCRASQSVSTSRYSYIHWYQQKPGQPPKLLIKYASNLESGVPSRFSGSGSGTDFTLNIHPLEEEDFATYYCHHSWEIPLTFGQGTKLEIKR |  |  |  |  |  |  | 1.02 relative to Chimera | 1.02 relative to Chimera | 1.43 relative to Chimera | 
VH1/VK4 (antibody, human IgG4 S228P, kappa, humanized HJ8.5 variant, combination of VH1 and VK4) heavy chain: not shown light chain: DIVMTQSPDSLAVSLGERATISCRASQSVSTSRYSYIHWYQQKPGQPPKLLIKYASNLESGVPSRFSGSGSGTDFTLTISSLQPEDFATYYCHHSWEIPLTFGQGTKLEIKRTVAAPSVFIFPPSDEQLKSGTASVVCLLNNFYPREAKVQWKVDNALQSGNSQESVTEQDSKDSTYSLSSTLTLSKADYEKHKVYACEVTHQGLSSPVTKSFNRGEC |  |  |  |  |  |  | 1.41 relative to Chimera | 1.02 relative to Chimera | 2.05 relative to Chimera | 
VH3/VK4 (antibody, human IgG4 S228P, kappa, humanized HJ8.5 variant, combination of VH3 and VK4) heavy chain: not shown light chain: DIVMTQSPDSLAVSLGERATISCRASQSVSTSRYSYIHWYQQKPGQPPKLLIKYASNLESGVPSRFSGSGSGTDFTLTISSLQPEDFATYYCHHSWEIPLTFGQGTKLEIKRTVAAPSVFIFPPSDEQLKSGTASVVCLLNNFYPREAKVQWKVDNALQSGNSQESVTEQDSKDSTYSLSSTLTLSKADYEKHKVYACEVTHQGLSSPVTKSFNRGEC |  |  |  |  |  |  | 1.51 relative to Chimera | 1.22 relative to Chimera | 0.89 relative to Chimera | 
VH3/VK1 (antibody, human IgG4 S228P, kappa, V domains shown, humanized HJ8.5 variant, combination of VH3 and VK1) VH: EVQVVESGGGLVQPGGSLKLSCVVSGFTFSNYWVNWVRQAPGKGLEWVAQIRLKSDNYATHYEESVKGRFTISRDDSKNSVYLQMNSLRAEDTAIYYCTNWEDYWGQGTTVTVSS VL: DIVLTQSPDSLAVSLGERATISCRASQSVSTSRYSYIHWYQQKPGQPPKLLIKYASNLESGVPSRFSGSGSGTDFTLNIHPLEEEDFATYYCHHSWEIPLTFGQGTKLEIKR |  |  |  |  |  |  | 1.04 relative to Chimera | 1.42 relative to Chimera | 1.16 relative to Chimera | 
